4 molecules from patent US7288256B1, “T cell epitopes of the major allergens from dermatophagoides (house dust mite)” (Merck Patent GmbH, priority 1991, dated 2007) can be followed below.

Test [1] relates to PBMC from mite-allergic patient. The test can be described thus: Primary PBMC proliferation (3H-thymidine) to Der p I/Der p II proteins and peptides, Example IV. The note with it: for CPM ± S.D.: 7 days culture; for S.I.: CPM with antigen / CPM medium only. In kind it is cell-based, human. As for the experimental part:
Peripheral blood mononuclear cells (PBMC) were purified by Ficoll-Hypaque centrifugation of a peripheral blood specimen from mite-allergic patient and were assayed for proliferation in response to various antigens, i.e., affinity-purified Der p I, affinity purified […], various Der p I and Der p II peptides. For assay, 5×10^4 PBMC were cultured in triplicate microwells for 7 days at 37° C. in the presence of various concentrations of antigen in 200 μl RPMI-1640 containing 5% human AB serum. Each well then received 1 μCi tritiated thymidine for 16 hours. The counts incorporated were collected onto glass fiber filters and processed for liquid scintillation counting. […] The CPM+/− standard deviation are shown. The stimulation index of each response (S.I.) is the ratio of the ^3H-thymidine CPM incorporated by the cells in response to antigen divided by the ^3H-thymidine CPM incorporated by cells in medium only. […] Thus, these peptides contain Der p I or Der p II T cell epitopes recognized by T cells from this particular allergic patient.

For test [2], the system named is human IgE. The test can be described thus: Direct binding ELISA of IgE to mite allergen proteins and peptides (Examples XIII, XV). As for the experimental part:
Corning assay plates (#25882-96) were coated with 5 μg/ml of each coating antigen listed in FIGS. 19, 20 and 21 at […] and incubated overnight at 4° C. The coating antigens were removed and the wells are blocked with 0.5% gelatin in PBS, 300 μl/well for 2 hours at room temperature. […] Louis, Mo.) and 100 μl/well a\was added and incubated overnight at 4° C. (plasma dilutions were tested in duplicate). The second antibody (biotinylated goat anti-Human IgE, 1:1000, Kirkegaard & Perry Laboratories Inc, Gaithersburg, Md.), was added at 100 μl/well for one hour at room temperature. This solution was removed and streptavidin-HRPO, 1:10000, (Southern Biotechnology Associates, Inc., Birmingham, Ala.) was then added at 100 μl/well for one hour at room temperature (all wells are washed three times with PBS-Tween between each incubation step). TMB Membrane Peroxidase Substrate system (Kirkegaard & Perry Laboratories) was freshly miced, and added at […]. The color was allowed to develop for 2-5 minutes. The reaction was stopped by the addition of […] of 1M phosphoric acid. Plates were read on a Microplate IL310 Autoreader (Biotech Instruments, Winooski, Vt.) with a 450 nm filter. The absorbance levels of duplicate wells were averaged. The order of coating antigens listed vertically in these figure legends corresponds in […] from left to right to the coating antigens listed for each histogram.
In general terms: ELISA stands for enzyme-linked immunosorbent assay.

The mark [3] stands for this setting: plasma from 19 mite-allergic patients and a pool of 18 additional patients, Example XV.
The mark [4] stands for this setting: pooled human plasma from 20 mite skin test positive patients, coating antigen 5 μg/ml, FIGS. 19-21.

B1: Der p I: Group I protein allergen of Dermatophagoides pteronyssinus, immunoaffinity purified native form (protein)
chain: TNACSINGNAPAEIDLRQMRTVTPIRMQGGCGSCWAFSGVAATESAYLAHRNQSLDLAEQELVDCASQHGCHGDTIPRGIEYIQHNGVVQESYYRYVAREQSCRRPNAQRFGISNYCQIYPPNANKIREALAQTHSAIAVIIGIKDLDAFRHYDGRTIIQRDNGYQPNYHAVNIVGYSNAQGVDYWIVRNSWDTNWGDNGYGYFAANIDLMMIEEYPYVVIL
For B1, the “CPM ± S.D.” value was found to be 920 ± 15 CPM in test [1] (antigen 10 μg/ml), 2122 ± 93 CPM in test [1] (antigen 30 μg/ml) and 1492 ± 13 CPM in test [1] (antigen 100 μg/ml). Also, the S.I. was determined as 0.9 in test [1] (antigen 10 μg/ml), 2.0 in test [1] (antigen 30 μg/ml) and 1.4 in test [1] (antigen 100 μg/ml). For the same molecule, the “IgE binding in direct ELISA” value in test [2] (setting [3]) is given as “All samples did contain IgE”.

B2: Der p II: Group II protein allergen of Dermatophagoides pteronyssinus, immunoaffinity purified native form (protein)
chain: DQVDVKDCANHEIKKVLVPGCHGSEPCIIHRGKPFQLEAVFEANQNTKTAKIEIKASIDGLEVDVPGIDPNACHYMKCPLVKGQQYDIKYTWNVPKIAPKSENVVVTVKVMGDDGVLACAIATHAKIRD
With B2, the “CPM ± S.D.” value in test [1] (antigen 10 μg/ml) came to 1113 ± 35 CPM; in test [1] (antigen 30 μg/ml), 2104 ± 43 CPM; in test [1] (antigen 100 μg/ml), 1057 ± 27 CPM. The S.I. in test [1] (antigen 10 μg/ml) was found to be 1.0; in test [1] (antigen 30 μg/ml), 2.0; in test [1] (antigen 100 μg/ml), 1.0. Further, the “IgE binding in direct ELISA” value in test [2] (setting [3]) is recorded as “All samples did contain IgE”; in test [2] (setting [4]), “good binding”.

B3: recombinant Der f II: recombinant Der f II expressed in E. coli as His6 fusion (protein)
chain: MGHHHHHHEFDQVDVKDCANNEIKKVMVDGCHGSDPCIIHRGKPFTLEALFDANQNTKTAKTEIKASLDGLEIDVPGIDTNACHFMKCPLVKGQQYDAKYTWNVPKIAPKSENVVVTVKLVGDNGVLACAIATHAKIRD
Take B3: the “IgE binding in direct ELISA” value in test [2] (setting [4]) is reported as “binding”.

B4: biochemically purified Der f II: Group II protein allergen of Dermatophagoides farinae, immunoaffinity purified native form (protein)
chain: DQVDVKDCANNEIKKVMVDGCHGSDPCIIHRGKPFTLEALFDANQNTKTAKTEIKASLDGLEIDVPGIDTNACHFMKCPLVKGQQYDAKYTWNVPKIAPKSENVVVTVKLVGDNGVLACAIATHAKIRD
B4: the “IgE binding in direct ELISA” value in test [2] (setting [4]) is reported as “binding”.
